Target: CXCR4 on THP-1 cells (human (endogenous in THP-1)) (UniProt P61073)
Chain of UniProt P61073 (P61073 whole entry): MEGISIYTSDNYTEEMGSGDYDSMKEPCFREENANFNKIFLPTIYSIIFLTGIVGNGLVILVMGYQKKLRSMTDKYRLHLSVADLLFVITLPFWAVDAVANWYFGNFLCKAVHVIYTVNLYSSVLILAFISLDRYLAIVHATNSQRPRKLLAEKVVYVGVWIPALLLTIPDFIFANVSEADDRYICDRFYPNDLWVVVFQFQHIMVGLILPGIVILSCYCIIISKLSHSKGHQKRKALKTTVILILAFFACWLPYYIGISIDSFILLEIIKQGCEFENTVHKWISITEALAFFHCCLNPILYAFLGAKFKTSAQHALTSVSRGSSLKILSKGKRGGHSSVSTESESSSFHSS

For “Recombinant human stromal cell-derived factor-1 (SDF-1/CXCL12), intact (from UniProt P48061 22-93) (ligand)”, the CXCR4 internalization (loss of surface CXCR4 by flow cytometry) in THP-1 cells, 100 ng/mL SDF-1 for 15 minutes; uncut SDF-1, and SDF-1 pre-incubated with COAM 100x before protease at similar levels (% of receptor internalization) was 25.
